Data as given in the supplement of paper PMC9112550, “Optimization of the antimicrobial peptide Bac7 by deep mutational scanning” (BMC Biology, 2022).

Each sequence was assayed on Escherichia coli TOP10 (assay: shrunken log2 fold change of peptide-encoding DNA abundance (4.5 h post-induction vs induction); higher = less antimicrobial activity (less host growth inhibition)). Conditions: time post-induction: 4.5 h; library: site-saturation at positions 5, 18, 19, 20.
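Further: peptides expressed intracellularly from a pBAD plasmid library in pooled LB shake-flask culture, induced with 0.3% L-arabinose, DNA abundance read by NGS, three biological replicates, DESeq2 with apeglm shrinkage.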

Row | Sequence | shrunken log2 fold change
1 | RRIRMRPPRLPRPRPRPQNLPRP | 0.12
2 | RRIRDRPPRLPRPRPRPRSIPRP | -0.0279
3 | RRIRPRPPRLPRPRPRPMDWPRP | 0.432
4 | RRIRARPPRLPRPRPRPMILPRP | 0.0109
5 | RRIRQRPPRLPRPRPRPDLCPRP | -0.00719
6 | RRIRFRPPRLPRPRPRPLFNPRP | -0.605
7 | RRIRQRPPRLPRPRPRPGVYPRP | 0.0572
8 | RRIRQRPPRLPRPRPRPGLCPRP | -0.0449
9 | RRIRGRPPRLPRPRPRPKKIPRP | 0.494
10 | RRIRKRPPRLPRPRPRPQDRPRP | 0.201
11 | RRIRYRPPRLPRPRPRPAHWPRP | 0.0585
12 | RRIRERPPRLPRPRPRPAFIPRP | -0.012
13 | RRIRRRPPRLPRPRPRPCSPPRP | -0.125
14 | RRIRCRPPRLPRPRPRPEWLPRP | 0.479
15 | RRIRDRPPRLPRPRPRPANNPRP | -0.218
16 | RRIRTRPPRLPRPRPRPDDQPRP | -0.052
17 | RRIRNRPPRLPRPRPRPKTEPRP | -0.067
18 | RRIRKRPPRLPRPRPRPKRRPRP | 0.0103
19 | RRIRIRPPRLPRPRPRPFGVPRP | -0.0635
20 | RRIRSRPPRLPRPRPRPSTKPRP | -0.00791
21 | RRIRMRPPRLPRPRPRPYITPRP | -0.393
22 | RRIRYRPPRLPRPRPRPQRWPRP | -0.13
23 | RRIRRRPPRLPRPRPRPTYVPRP | 0.00831
24 | RRIRFRPPRLPRPRPRPFYRPRP | -0.202
25 | RRIRKRPPRLPRPRPRPWIFPRP | 0.287

Row | Sequence | shrunken log2 fold change
26 | RRIRRRPPRLPRPRPRPDITPRP | 0.303
27 | RRIRYRPPRLPRPRPRPYWIPRP | -0.222
28 | RRIRGRPPRLPRPRPRPDVPPRP | 0.0136
29 | RRIRYRPPRLPRPRPRPGYPPRP | -0.299
30 | RRIRERPPRLPRPRPRPVGHPRP | -0.000999
31 | RRIRMRPPRLPRPRPRPFLTPRP | 0.0674
32 | RRIRHRPPRLPRPRPRPMYAPRP | -0.0133
33 | RRIRARPPRLPRPRPRPSTMPRP | -0.237
34 | RRIRPRPPRLPRPRPRPTWLPRP | 0.522
35 | RRIRVRPPRLPRPRPRPAWFPRP | 0.0841
36 | RRIRWRPPRLPRPRPRPYGKPRP | 0.027
37 | RRIRMRPPRLPRPRPRPYYLPRP | -0.326
38 | RRIRKRPPRLPRPRPRPWCMPRP | 0.183
39 | RRIRRRPPRLPRPRPRPKDYPRP | -0.485
40 | RRIRPRPPRLPRPRPRPDLNPRP | 0.168
41 | RRIRKRPPRLPRPRPRPNAMPRP | -0.0822
42 | RRIRLRPPRLPRPRPRPDEQPRP | -0.017
43 | RRIRERPPRLPRPRPRPGHKPRP | -0.324
44 | RRIRKRPPRLPRPRPRPRRAPRP | 0.9
45 | RRIRPRPPRLPRPRPRPWHTPRP | -0.087
46 | RRIRCRPPRLPRPRPRPHFPPRP | -0.0893
47 | RRIRMRPPRLPRPRPRPRREPRP | 1.27
48 | RRIRPRPPRLPRPRPRPALFPRP | 0.2
49 | RRIRWRPPRLPRPRPRPQLIPRP | -0.153
50 | RRIRERPPRLPRPRPRPHFVPRP | -0.0987

Row | Sequence | shrunken log2 fold change
51 | RRIRLRPPRLPRPRPRPCIVPRP | -0.641
52 | RRIRDRPPRLPRPRPRPVSDPRP | -0.145
53 | RRIRRRPPRLPRPRPRPETTPRP | 1.09
54 | RRIRVRPPRLPRPRPRPYIRPRP | -0.434
55 | RRIRQRPPRLPRPRPRPCDGPRP | -0.26
56 | RRIRLRPPRLPRPRPRPACDPRP | 0.15
57 | RRIRPRPPRLPRPRPRPIRTPRP | 0.289
58 | RRIRDRPPRLPRPRPRPGLSPRP | 0.241
59 | RRIRERPPRLPRPRPRPKQSPRP | -0.0888
60 | RRIRYRPPRLPRPRPRPTSEPRP | -0.0408
61 | RRIRFRPPRLPRPRPRPPSKPRP | -0.148
62 | RRIRSRPPRLPRPRPRPLTRPRP | 0.0286
63 | RRIRRRPPRLPRPRPRPRTMPRP | 0.221
64 | RRIRVRPPRLPRPRPRPDWEPRP | 0.00682
65 | RRIRLRPPRLPRPRPRPIVRPRP | -0.151
66 | RRIRARPPRLPRPRPRPFDIPRP | -0.127
67 | RRIRFRPPRLPRPRPRPLWYPRP | -0.721
68 | RRIRRRPPRLPRPRPRPRDWPRP | 1.01
69 | RRIRNRPPRLPRPRPRPSRTPRP | 0.0867
70 | RRIRVRPPRLPRPRPRPDWYPRP | -0.0357
71 | RRIRGRPPRLPRPRPRPNDCPRP | -0.04
72 | RRIRLRPPRLPRPRPRPYYWPRP | -0.172
73 | RRIRPRPPRLPRPRPRPQQWPRP | 0.182
74 | RRIRYRPPRLPRPRPRPEFPPRP | 0.011
75 | RRIRRRPPRLPRPRPRPGATPRP | 0.74

Row | Sequence | shrunken log2 fold change
76 | RRIRWRPPRLPRPRPRPMHCPRP | -0.0635
77 | RRIRVRPPRLPRPRPRPQYVPRP | -0.262
78 | RRIRHRPPRLPRPRPRPPSFPRP | -0.234
79 | RRIRGRPPRLPRPRPRPKELPRP | 0.247
80 | RRIRVRPPRLPRPRPRPCVPPRP | 0.124
81 | RRIRMRPPRLPRPRPRPKYHPRP | -0.488
82 | RRIRDRPPRLPRPRPRPVGQPRP | 0.435
83 | RRIRIRPPRLPRPRPRPSDMPRP | -0.309
84 | RRIRSRPPRLPRPRPRPNKDPRP | -0.651
85 | RRIRFRPPRLPRPRPRPNRMPRP | 0.0762
86 | RRIRKRPPRLPRPRPRPDSPPRP | -0.0585
87 | RRIRRRPPRLPRPRPRPIMEPRP | 0.161
88 | RRIRYRPPRLPRPRPRPDGWPRP | 0.212
89 | RRIRKRPPRLPRPRPRPEHKPRP | 0.295
90 | RRIRLRPPRLPRPRPRPHGYPRP | -0.528
91 | RRIRSRPPRLPRPRPRPMVEPRP | 0.884
92 | RRIRVRPPRLPRPRPRPLTAPRP | 0.106
93 | RRIRHRPPRLPRPRPRPQQLPRP | 0.044
94 | RRIRTRPPRLPRPRPRPREHPRP | 0.327
95 | RRIRQRPPRLPRPRPRPEKWPRP | -0.191
96 | RRIRFRPPRLPRPRPRPSPKPRP | 0.188
97 | RRIRSRPPRLPRPRPRPRWGPRP | 0.228
98 | RRIRRRPPRLPRPRPRPVDLPRP | 0.332
99 | RRIRHRPPRLPRPRPRPSMCPRP | -0.448
100 | RRIRWRPPRLPRPRPRPFQFPRP | -0.198

Row | Sequence | shrunken log2 fold change
101 | RRIRVRPPRLPRPRPRPCHAPRP | -0.311
102 | RRIRKRPPRLPRPRPRPRVVPRP | 0.143
103 | RRIRARPPRLPRPRPRPMGEPRP | 0.1
104 | RRIRHRPPRLPRPRPRPIAAPRP | -0.0333
105 | RRIRSRPPRLPRPRPRPKIPPRP | 1.16
106 | RRIRCRPPRLPRPRPRPQPAPRP | 0.632
107 | RRIRTRPPRLPRPRPRPENPPRP | 0.261
108 | RRIRPRPPRLPRPRPRPAEWPRP | 0.308
109 | RRIRHRPPRLPRPRPRPFYWPRP | -0.0655
110 | RRIRYRPPRLPRPRPRPIWRPRP | 0.0429
111 | RRIRQRPPRLPRPRPRPWMLPRP | -0.267
112 | RRIRNRPPRLPRPRPRPEYRPRP | -0.159
113 | RRIRGRPPRLPRPRPRPFNPPRP | -0.439
114 | RRIRDRPPRLPRPRPRPIRVPRP | -0.185
115 | RRIRMRPPRLPRPRPRPSTCPRP | -0.0128
116 | RRIRIRPPRLPRPRPRPIASPRP | -0.567
117 | RRIRWRPPRLPRPRPRPWNVPRP | 0.0207
118 | RRIRPRPPRLPRPRPRPVGVPRP | 0.52
119 | RRIRARPPRLPRPRPRPKPDPRP | 0.582
120 | RRIRARPPRLPRPRPRPVGAPRP | 0.731
121 | RRIRSRPPRLPRPRPRPPQIPRP | 0.138
122 | RRIRSRPPRLPRPRPRPDPEPRP | 0.183
123 | RRIRIRPPRLPRPRPRPELRPRP | 0.0361
124 | RRIRPRPPRLPRPRPRPIYCPRP | -0.102
125 | RRIRVRPPRLPRPRPRPPDDPRP | 0.107

Row | Sequence | shrunken log2 fold change
126 | RRIRCRPPRLPRPRPRPRNHPRP | -0.0709
127 | RRIRVRPPRLPRPRPRPFCCPRP | -0.0229
128 | RRIRERPPRLPRPRPRPNDHPRP | -0.622
129 | RRIRGRPPRLPRPRPRPQRQPRP | 0.687
130 | RRIRNRPPRLPRPRPRPRFYPRP | -0.201
131 | RRIRWRPPRLPRPRPRPPNVPRP | 0.0153
132 | RRIRQRPPRLPRPRPRPYHDPRP | 0.015
133 | RRIRNRPPRLPRPRPRPRTWPRP | 0.415
134 | RRIRHRPPRLPRPRPRPDIQPRP | -0.0379
135 | RRIRWRPPRLPRPRPRPQSMPRP | 0.0679
136 | RRIRERPPRLPRPRPRPETTPRP | 0.165
137 | RRIRCRPPRLPRPRPRPDNHPRP | -0.719
138 | RRIRVRPPRLPRPRPRPVSMPRP | -0.066
139 | RRIRFRPPRLPRPRPRPCCFPRP | -0.354
140 | RRIRARPPRLPRPRPRPHGVPRP | 0.0905
141 | RRIRVRPPRLPRPRPRPSSSPRP | -0.113
142 | RRIRARPPRLPRPRPRPFKNPRP | -0.193
143 | RRIRHRPPRLPRPRPRPHEMPRP | -0.257
144 | RRIRNRPPRLPRPRPRPFWAPRP | 0.0267
145 | RRIRDRPPRLPRPRPRPPVLPRP | 0.267
146 | RRIRNRPPRLPRPRPRPFAAPRP | 0.0928
147 | RRIRQRPPRLPRPRPRPTNIPRP | -0.122
148 | RRIRARPPRLPRPRPRPTNVPRP | 0.0619
149 | RRIRNRPPRLPRPRPRPPAIPRP | 0.276
150 | RRIRKRPPRLPRPRPRPMCIPRP | -0.00174
